From US20190309072A1 (CYTOMX THERAPEUTICS, published 2019)

B1: anti-ITGa3 huVM2 Hc2T62G/Lc1 antibody (antibody, human IgG1, kappa)
heavy: not shown
light: DIQMTQSPSSLSASVGDRVTITCSASSSISSNYLHWYQQKPGKVPKLLIYRTSNLASGVPSRFSGSGSGTDYTLTISSLQPEDVATYYCQQGSSIPRFTSGGGTKVEIKRTVAAPSVFIFPPSDEQLKSGTASVVCLLNNFYPREAKVQWKVDNALQSGNSQESVTEQDSKDSTYSLSSTLTLSKADYEKHKVYACEVTHQGLSSPVTKSFNRGEC
notes: also called ITGa3 Ab; ITGA3-Ab
B2: anti-ITGa3 huVM2 Hc2T62G/Lc1 antibody conjugated to vc-MMAD (antibody, human IgG1, kappa)
heavy: not shown
light: B1 light
modifications: vc-MMAD conjugated to the antibody; chain and residues of attachment not stated
notes: Antibody drug conjugate of m29; also called ITGa3 Ab-MMAD; huVM2 Hc2T62G-MMAD ADC
B3: VM2 chimera (antibody, V domains shown)
VH: EVQLQESGAELVKPGTSVRLSCKASGYTFTEYIIHWVKQRSGQGLEWIGWFYPESGSVKYNETFKGRATLTADKSSSTVYMELSRLTSEDSAVYFCARHEERDYYGYYAMDYWGQGTSVTVSS
VL: DIVMTQTPTTLAASPGEKIIITCSASSSISSNYLHWYQQKPGFSPKLLIYRTSNLASGVPARFSGSGSGTSYSLTIGTMEAEDVATYYCQQGSSIPRFTSGSGTKLEIK
notes: Chimera of the mouse VM2 variable domains; also called VM2 chimera anti-ITGa3 antibody
B4: anti-ITGA3 Hc2T62G-570-2001 (antibody)
heavy: not shown
light: QGQSGQGECKTRQDFEMHDCVYGGGSSGGSISSGLLSGRSDNHGGGSDIQMTQSPSSLSASVGDRVTITCSASSSISSNYLHWYQQKPGKVPKLLIYRTSNLASGVPSRFSGSGSGTDYTLTISSLQPEDVATYYCQQGSSIPRFTSGGGTKVEIKRTVAAPSVFIFPPSDEQLKSGTASVVCLLNNFYPREAKVQWKVDNALQSGNSQESVTEQDSKDSTYSLSSTLTLSKADYEKHKVYACEVTHQGLSSPVTKSFNRGEC
notes: also called ITGa3-ActAb; ITGa3 ActAb
B5: anti-ITGA3 Hc2T62G-570-2001 conjugated to vc-MMAD (antibody, human IgG1, kappa)
heavy: not shown
light: B4 light
modifications: vc-MMAD conjugated to the antibody; chain and residues of attachment not stated
notes: also called ITGa3 570-2001-MMAD; ITGa3-570-2001-MMAD

How the values were obtained:
[1] = biological target: T1, human ITGa3 on human-derived cell lines (human, UniProt P26006 33-1051); experiment: FACS on BxPC3 cells; apparent Kd from binding curve
T1 construct: whole, on cells; also called ITGa3 on H292 cells
T1 sequence (looked up): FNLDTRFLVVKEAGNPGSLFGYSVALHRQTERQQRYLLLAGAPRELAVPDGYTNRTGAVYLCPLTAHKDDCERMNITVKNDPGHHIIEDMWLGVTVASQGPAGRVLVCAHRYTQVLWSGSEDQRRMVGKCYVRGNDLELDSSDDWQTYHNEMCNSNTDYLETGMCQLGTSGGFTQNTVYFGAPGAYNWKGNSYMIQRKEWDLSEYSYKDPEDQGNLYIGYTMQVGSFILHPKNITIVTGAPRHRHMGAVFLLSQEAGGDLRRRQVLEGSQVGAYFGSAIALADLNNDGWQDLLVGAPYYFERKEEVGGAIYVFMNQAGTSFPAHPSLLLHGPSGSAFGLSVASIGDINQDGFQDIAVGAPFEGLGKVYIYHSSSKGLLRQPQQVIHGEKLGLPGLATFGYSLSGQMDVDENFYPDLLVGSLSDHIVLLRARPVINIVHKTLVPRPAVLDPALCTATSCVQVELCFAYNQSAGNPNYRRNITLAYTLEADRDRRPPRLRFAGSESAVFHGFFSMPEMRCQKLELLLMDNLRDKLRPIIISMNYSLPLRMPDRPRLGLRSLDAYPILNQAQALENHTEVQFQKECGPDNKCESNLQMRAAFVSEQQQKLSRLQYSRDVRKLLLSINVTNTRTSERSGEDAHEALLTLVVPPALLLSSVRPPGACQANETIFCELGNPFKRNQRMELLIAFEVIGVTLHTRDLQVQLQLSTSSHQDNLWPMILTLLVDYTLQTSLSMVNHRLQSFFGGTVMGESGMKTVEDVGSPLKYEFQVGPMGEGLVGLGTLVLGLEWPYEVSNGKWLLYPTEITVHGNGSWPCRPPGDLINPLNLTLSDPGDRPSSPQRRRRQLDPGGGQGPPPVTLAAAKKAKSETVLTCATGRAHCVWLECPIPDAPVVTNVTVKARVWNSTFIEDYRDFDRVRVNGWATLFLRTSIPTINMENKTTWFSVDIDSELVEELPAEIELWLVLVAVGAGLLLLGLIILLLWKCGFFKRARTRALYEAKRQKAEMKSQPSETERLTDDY
Experimental: (§1) In this study, the binding of the antibodies of the present disclosure to the indicated cell lines were performed using a standard FACS labelling method.

[2] = biological target: T2, mouse ITGa3 on mouse-derived Renca renal carcinoma cells (mouse, UniProt Q62470 33-1053); experiment: FACS on Renca cells; goat anti-human IgG Alexa Fluor 647 secondary
T2 construct: whole, on cells
T2 sequence (looked up): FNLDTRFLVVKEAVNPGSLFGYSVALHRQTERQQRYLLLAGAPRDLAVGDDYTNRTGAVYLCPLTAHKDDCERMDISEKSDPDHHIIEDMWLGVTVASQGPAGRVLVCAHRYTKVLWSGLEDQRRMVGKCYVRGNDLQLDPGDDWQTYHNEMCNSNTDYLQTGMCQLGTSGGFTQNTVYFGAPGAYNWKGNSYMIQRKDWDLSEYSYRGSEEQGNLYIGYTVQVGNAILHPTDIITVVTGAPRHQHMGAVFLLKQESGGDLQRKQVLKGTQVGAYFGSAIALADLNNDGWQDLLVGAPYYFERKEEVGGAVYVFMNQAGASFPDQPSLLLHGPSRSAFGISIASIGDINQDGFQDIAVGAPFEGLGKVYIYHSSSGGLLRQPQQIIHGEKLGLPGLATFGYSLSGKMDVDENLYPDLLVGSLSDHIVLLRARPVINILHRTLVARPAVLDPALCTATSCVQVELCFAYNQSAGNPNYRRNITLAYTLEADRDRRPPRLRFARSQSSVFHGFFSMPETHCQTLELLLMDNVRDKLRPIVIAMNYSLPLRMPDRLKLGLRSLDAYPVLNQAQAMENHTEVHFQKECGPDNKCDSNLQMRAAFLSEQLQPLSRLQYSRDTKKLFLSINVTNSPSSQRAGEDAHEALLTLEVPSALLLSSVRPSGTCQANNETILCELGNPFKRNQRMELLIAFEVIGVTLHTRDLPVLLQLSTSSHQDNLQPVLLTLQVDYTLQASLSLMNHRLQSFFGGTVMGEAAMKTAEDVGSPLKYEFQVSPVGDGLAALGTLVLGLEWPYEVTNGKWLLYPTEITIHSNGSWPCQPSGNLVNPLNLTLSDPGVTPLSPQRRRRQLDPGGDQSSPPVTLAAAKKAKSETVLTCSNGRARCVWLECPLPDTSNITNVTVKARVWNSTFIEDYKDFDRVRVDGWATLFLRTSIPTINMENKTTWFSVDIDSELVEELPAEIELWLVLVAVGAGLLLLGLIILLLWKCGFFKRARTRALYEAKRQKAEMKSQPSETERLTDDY

[3] = biological target: T1, human ITGa3 on human-derived cell lines; experiment: FACS on MDA MB231 cells; apparent Kd from binding curve
Experimental: as §1

[4] = biological target: T1, human ITGa3 on human-derived cell lines; experiment: FACS on MDA MB 231 cells (FIG. 17B); apparent Kd from binding curve
Experimental: In this study, the binding of the antibodies of the present disclosure to the indicated cell lines were performed using a standard FACS labelling method. Briefly, in FIG. 17A cells were labeled with the indicated antibodies of the present disclosure: anti-human ITGa3 antibody drug conjugate (anti-ITGa3 huVM2 Hc2/Lc1-spdb-DM4, “ITGa-DM4”) or an anti-human ITGa3 activatable antibody drug conjugate (anti-ITGA3 Hc2-570-2001-spdb-DM4, “ITGA3-570-2001-DM4”), where the anti-ITGa3 AADC was used with and without activation by a protease that recognized the substrate sequence. In FIG. 17B cells were labeled with the indicated antibodies of the present disclosure: anti-human ITGa3 antibody (anti-ITGa3 huVM2 Hc2T62G/Lc1 antibody, “ITGa3 Ab”) or an anti-human ITGa3 activatable antibody (anti-ITGA3 Hc2T62G-570-2001, “ITGA3-570-2001; anti-ITGA3 Hc2T62G-2331-3001, “ITGA3-2331-3001”) and their corresponding AADCs conjugated to vc-MMAD at the indicated concentrations and subsequently detected with an Alexa Fluor 647 labeled goat anti-human IgG secondary antibody.

[5] = biological target: T1, human ITGa3 on human-derived cell lines; experiment: FACS on FaDu cells; apparent Kd from binding curve
Experimental: as §1

[6] = biological target: T1, human ITGa3 on human-derived cell lines; experiment: FACS on HT29 cells; apparent Kd from binding curve
Experimental: as §1

[7] = biological target: T1, human ITGa3 on human-derived cell lines; experiment: FACS on H292 cells; goat anti-human IgG Alexa Fluor 647 secondary; used for comparison
Experimental: […], the binding of activatable anti-ITGa3 antibodies of the present disclosure comprising the VH of SEQ ID NO: 7, a VL selected from the VL of SEQ ID NO: 11 and the VL of SEQ ID NO: 12, with a masking moiety selected from the 570 masking moiety (SEQ ID NO: 22) and the 574 masking moiety (SEQ ID NO: 26), and the CM1 substrate comprising the sequence […] (SEQ ID NO: 232) to the H292 cell line was evaluated using a cell-binding FACS assay. The VM2 chimera (VH of SEQ ID NO: 1 and VL of SEQ ID NO: 2) was used for comparison. Using a standard labeling protocol for FACS, cells were labeled with anti-ITGa3 antibody or anti-ITGa3 activatable antibody of the present disclosure at the indicated concentrations, and the bound antibody was detected with a goat anti-human IgG Alexa Fluor 647 secondary antibody.

[8] = biological target: T1, human ITGa3 on human-derived cell lines; experiment: FACS on FaDu cells; shift of the ActAb Kd against the ITGa3 Ab Kd
Experimental: as §1

[9] = biological target: T1, human ITGa3 on human-derived cell lines; experiment: FACS on MDA MB231 cells; shift of the ActAb Kd against the ITGa3 Ab Kd
Experimental: as §1

[10] = biological target: T1, human ITGa3 on human-derived cell lines; experiment: FACS on BxPC3 cells; shift of the ActAb Kd against the ITGa3 Ab Kd
Experimental: as §1

[11] = biological target: T1, human ITGa3 on human-derived cell lines; experiment: FACS on HT29 cells; shift of the ActAb Kd against the ITGa3 Ab Kd
Experimental: as §1

Row | Binder | Kd [1] [nM] | Kd [3] [nM] | Kd [4] [nM] | Kd [5] [nM] | Kd [6] [nM] | further results
1 | B1 | 0.77 | 0.91 | 0.906 | 0.32 | 0.24 | binding result [2]: no binding
2 | B2 | – | – | 1.08 | – | – | –
3 | B3 | – | – | – | – | – | binding result [7]: binds
4 | B4 | 7.39 | 7.42 | 18 | 4.58 | 6.03 | Apparent Masking Efficiency [8]: 14 fold; Apparent Masking Efficiency [9]: 8 fold; Apparent Masking Efficiency [10]: 10 fold; Apparent Masking Efficiency [11]: 25 fold
5 | B5 | – | – | 17.5 | – | – | –
